This note sets out measurements from a protein production outcome set (Wang et al. 2014).

The series can be described thus: label from the status in PepcDB records.
Regarding “MGATVPQRKALVLKASRILLSEKPLPERLQAFLEALLEGPFPIRSGKLYLRKGEGLRLVAQLGGEAGGEEVALSLEGGGRALGRLSLRLAPAASLAPEDRLALEEAAGILALALLRERAERAERVLRRAGECATQAAGEGDLLHKVCALLVEEGYALAWVGEARPTGEVVPREAAGAVGYLEGIRVRWDEAPEGQGPTGRALRSGRPQVLRSVEEDPRYAPWRERAQVFGFASSAAFPLRVEGRVWGSLNVYAPEEDAFDEEEVRLLEDLARLIGHALDRLRALERLRFLAYHDPLTGLPNRRRLEEDFRLLRGRWALCRLDLVDLYEVNEAYGREAGDALLARTSRRLQALLPREGRLYRLEGGEFLALLPGGAKEAEAFGQALGEALEAPLDLGEGRAFRVRVRAGVALFPDDANTLSELLRRADQALREAKKAGKRWTFYSLGLGEAVRERREVLAGLEKALAEGELRLYGQPIVDLATGRPAGVEVLLRWARGEEVVPASRFIPVAEEAGLIPELDLYVLRALAQMTTALPLHVNLSPQTLLDERLLLGLAPLKGRNLRLELTEHALASPGAEARLKELSCMGFPVVLDDFGQGYASLRLLVGLPFSMAKVDRGFVGGIGLDPKAEAALKAVLALSRELEIALVAEGVEREDQWAWLRSVGYSLGQGYLWGRPAPLEEVLYP”, the protein production entry is given as “failed”.
In the case of “NDDIIVNWVNRTLSEAGKSTSIQSFKDKTISSSLAVVDLIDAIQPGCINYDLVKSGNLTEDDKHNNAKYAVSMARRIGARVYALPEDLVEVKPKMVMTVFACLMGRGMKRV” it was “not failed”; in that of “DVTERRRAREALQESEARMKGIASNVPGMVFRLERPRAGAFSDFAYISEGSEALVGYSARELIESGRGIRGLVHPDDRERYWSSQMAALDENRDWHWQGRILTRQGELRWADIKASARCFEDGRAVWDGVVWD”, “failed”; in that of “MQEKIHWITNLRGIACMMVVMIHSTSWYITHPHAITLLQWDIANLLNSASRVSVPLFFMISGYLFFGERSAQPRHFWRIGLCIAFYSALSLLYITLFTHINVELSLKNLLQKPVFYHLWFFFAITVIYLLSPLLQVKSTSSTMLLALMAILGILANPNMVSVKAAGIEWLPVNLYINGDTFYYVLYGVLGRAIGTLDTDKKWLTPLCAALFIAAVWVISRGTLHELRWRGDFGDTWYLYCGPAVFVCAVTLLTLAKNWLNARPLPGIACIARHSLGIYGFHALIVHALRASHLELSRWPLLDIVWIFSAALLGSLLLSGLVQRIDSRRLVS”, “failed”.
In the case of “MQDQTEAVRFLSDPATHGGAPVERVETHGAFVFLAGSQAFKIKRAVRYDYMDLSTLALRHRMLARELELNRPAAPAIYRDLVAVTREPEGLALGGPGEPVEWVLRMWRFPAEDELSAVAERGALDDRLAARLGRSLAAYHRAAPVRSSDGAALVEAILDELGRVFAGMEDGLGAERIARFGTQARDMLARTKPLLRARSEAGRVRRGHGDLHLRNLVLIEGEPVPFDALEFDETLGTCDILYDLAFLLMDLDHRGLTRAAGIALAAWLFEMRGDEDGGLAALPLFLAVRAAIRGMVLVQTDAARGAPGHSDAEARGLLDEALRALSPPPPRLLAIGGVSGSGKTVLAAALAPRLGLPPGAIHLRSDLERKSRAGVPTDRRLGGAAYGEDARHAVYGQMLARAGAILAAGWPVILDATFLDPADRAAARALAAERGVPLEGLWLEAPPDLLVARVSTRRSDASDADEAVVRAQLARQPRAGDWRTLDTGRPPEEVAHSACRALGLD” it was “failed”; in that of “GKKDKEKIIDDFKVAVVTQPLSENKVQYNMVEEMAKEYEEENKIDKDKDGQTKVKQTIKHVVLPENFTSNIDSAINKIVKLADDKEVQAIVVSTDQAGLLPALQKVKEKRPEIITISAPMGDDKNQLSQFVDVNLGVSAEERGKVLAERSKEMGAKAFIHYASTDDLKDVNIAKRLEMIKETCKNIGLPFVQVNTPNINTEEDKNKVKQFLNEDIEKQVKKYGKDINVFGVNEYMDEVILTKALELKYIVAEQSNPSPIQTYPSVMGLKISEKDAQNYDKINDMISEKAKAFGMSNRLGGYPMPMDAFLPSLAIYLATEMVKQDLTQEDVCDPDYLEAFTELRFGIGSEFTPLTEVLYNYQSVILSQLIY”, “not failed”.
In the case of “MKTTALRLYGKRDLRLETFDLPEMQEDEILATVVTDSLCLSSWKEANLGENHKKVPDDVTTNPIIIGHEFCGDILAVGKKWQHKFQPGQRYVIQANLQLPDRPDCPGYSFPWVDGEATHVVIPNEVMEQYCLLAYDGETYFEGSLVEPLSCVIGAFNANYHLQEGSYNHTMGIRPQGHTLILGGTGPMGLLAIDYALHGPVNPSLLVITDTDNDKLSYARKHYPSEPQTLIHYLNATDAAFDTLMALSGGHGFDDIFVFVPNEGLVTLASSLLATDGCLNFFAGPQDKHFSAPINFYDVHYAFTHYVGTSGGNTDDMRAAVKLIEEKKVQAAKVVTHILGLNAAGETTLELPAVGGGKKLVYTGKYLPLTSLTQIQDQALAAILARHQGIWSGEVEQYLLAHAEAISHDLEHHHHHH”, the protein production result is given as “failed”.
In the case of “MKRKLIYLFIALAATILPAHAQKFLNDALTLSNVSLWQQGNSLYVGMTVDMANLTIGSARSLSLIPLLTDGQHNVPLQEIIVNGKRREKAYLRGLAISKQESTAIIVPYNKRETFNYTQVIPYQPWMANASLQLVENLCGCGNYQEMNAQELITNDVSTEAKRLSAMSPIVAYIQPTVEVVKNRSEQYEAHLDFPVNKSVILTDFMNNHSELVNIHSMFDKIQNDKNLTVQSISIEGFASPEGPLAFNEQLSKKRAEALKDYLVKNEKASAKLYKVTFGGENWDGLVKALESSSMKDKETFLNIIKNTTNDVKRKQEIMKVGGGAPYRTMLKEIYPGLRKVNCKIDYTVVNFDVEQGRIIIRENPKYLSLNEMYQVANSYPKGSKDFVDVFDIAVRMYPTDAVANLNAAAVALSQKDINTALKYMEKADHTTAEFLNNTGVYNFLNGDIQRATAAFEQAAKLGNEAAQANLKQLQQIMNMKMSK” it was “failed”.
In the case of “MIKSIKKNLKPKILISNLILIIGIVIFVTLYGAVFGSANSLVGVCAITAMLMFVDVHLSLKLNEAIITTVLSFVLMGVSSQIASINPFLGFVVNFISIFVVSYLVTNAMETKAYLPFILCYVFIEGTPITWSELPRRLIALFVGGALIALVYYFSHRKKDDSDHMNISEMIKTMNKNTLQFNFSLRMALAVSIAMLLGSILGFQKSMWISITAMSITQPHFDDTKTRVKERFFGTLIGSAIFVLIFVYIVPQQFSSIVLLILSYIYTFIKEYKIKMIFITMSSLGAAMILFQPGVSVPMRIAFIVMGIGIALVVNKVIYGRLKLEESNEELDETIKDIDKVNDEF” it was “failed”.
Regarding “MGPQRRLRPHEPWPTRSQPGSPAAAESSFLPSVSLLSWKLGDSAMSENRKLAAILAADVVGYSRLAGADEDLTLARLRTLRSDLIDPTIAVHHGRVVKRTGDGALVEFRSVVDAVRCAIEVQNGMVERNHGVPQDRRIEFRIGIHLGDVVEESDGDLMGDGVNIASRLEGVAAAGAICLSEDAYRQVKARLDLSVNDLGSTQLKNIAEPIRVYSLQVGSAGTKLAASPETAVSQPATAAPPKLSIAVLPFTNMSGDAEQDYFADGISEDIITALSKLSQLFVIARNSSFTFKGKNVHVQEVGTKLGVRHVLEGSVRKSGNRVRITAQLIDATTGGHLWAERFDRDLTDIFAVQDDVTQQIVGALAVNLTEGDRQRLAPGQTRHPEAYDCFLRGRELWHRLTRQTNSDARDLLQRAVDLDPNFASAHAFLALTHGLDYLNRWSALPQRSLEQAEEVATLAVARDDSDPVAHWALSLVSLYLRQHDRAISEAERAIVLNPNFAEGHVSLGEALIYSGRSGEALAYFDRASVLNPYFPDIVLHFQALALFQLGRYEEAVELLLQRVSRNPVTDVSRALLAACYGHLGRFEEARATWQEVMRVNPDYSLEYRRKVLPFKNPADFELVVEGLRKAGVVQ”, the protein production result is on record as “failed”.
Under “MVLLMAVSLSFAQMKNVKEAKSIASDVKPNFNQAEKLINEAIKNPETKDLPDTWDVAGFIQKRFIEEERDKKGVLKQPFDTLKAYNSILKMFEYYTKCDDLAQVPNEKGKIKNKYRKANASTILVERPNLINGGIQFFNLDKNKEALQFFATYVESASYPMLAEQNLAKTDTLLAQIAYYATLAADRVGDKDAIIKYAPAALDDKDGGKFAMQLMADAYKAKGDTAAWVKSLEEGILKFPGNDYFFANLVDYYTSSNQASKAMEFADRMLSTDANNKLYLYVKAYLYHNMKEYDNAIEFYKKAIAADPEYAEAYSNVGLVYLMKAQDYADKATTDINDPKYAEAQATVKKFYEEAKPFYEKARALKPDQKDLWLQGLYRVYYNLNMGPEFEEIDKMMK” stands “failed”; under “MARMAVTLTHVMAMHAQILKFIVTALFVVPLFLAPAEAQTSETDLLAQLQTAPESEANRLERELALIWDQSGSAAMDLLLKRGREALEDEDNARAVEHLSALTDHAPEFAEGWHARATALYRAGLYGPALDALHQALLLNPNNFNAIFGLGVMMREFGDLDRAARAFDRVLELHPHHKRAKAAKEQMAVQGLGQTL”, “failed”; under “MFTYLLITIFGIGLLIWAFWYDKNMFKPEKKKNGKMTKPLHTRWYFWVLVVFSIVGGIGNMLGLGADDDDSDNNSAQTVQTSKKAKQSKAENHSKAKKSGTKKSKEISDEEKEAAALLLLRKNFKGKAKVWYDSDNKAFMIQPTGTEFKEELLDIIATQDTSDWKDLTDSMDSLSRSLYKNLQLADFVSIVNPDNPDKVLYSSLNGHSEYDFLKDDE”, “failed”.
Consider “MRWFILCLRKYVDFKGRARRKEFWLFTLFYLIALVIPPAVIIPIAVIYRHTIDIALCIRICVVVEILVIFSLLLPAYAVTVRRLHDTNRSGLWVIASIVPRVLAEGLGVIFGQKWLIQIAEGEFPTLLLINMFLLLIDLCVSILILVMMCERGTEGENRFGPDPLSDGREVLMEPEPGK”, for which the protein production entry was “failed”.
“MLRNNLGNSSDSKNEDGSVFSQTEHNIVATYLIMAGMISIISNIIVLGIFIKYKELRTPTNAIIINLAVTDIGVSSIGYPMSAASDLYGSWKFGYAGCQVYAGLNIFFGMASIGLLTVVAVDRYLTICLPDVGRRMTTNTYIGLILGAWINGLFWALMPIIGWASYAPDPTGATCTINWRKNDRSFVSYTMTVIAINFIVPLTVMFYCYYHVTLSIKHHTTSDCTESLNRDWSDQIDVTKMSVIMICMFLVAWSPYSIVCLWASFGDPKKIPPPMAIIAPLFAKSSTFYNPCIYVVANKKFRRAMLAMFKCQTHQTMPVTSILPMDVSQNPLASGRI”: the protein production entry is “failed”.
As for “MGHHHHHHENLYFQSHLKIMDVEGGALVDPDHIEEVETSMVIVVDDDDGDVAMVVEEDKHPMRDDPCIEDIMDDEHAPLVAELQSALNNPDDKQASEDPLLED”, the protein production entry is recorded as “failed”.
As to “RSSYVLPDKFVLSVPIQGNLDEVHSLSSSLPLLSSAEPLSFQDLLFLFDHAAGDKRIGSILLEIGGVHANPAKLTELRYSIEKMKASGKKVVAFLRSAEDSDYLLATACDSIVVEEGGFLMLDGLKAETLFYTKSLNKIGITFQASQWKTYKSGIEPFVRTGASSEYLEQIGELLDDVYDDYLGYASKRRGISRDSLQAVIDNMALLSAKKAVQLGLADGIASSWA”, the protein production result is listed as “failed”.
On to “NAEKVALAKKVADESAVLLENRNDILPLDLNKYKSVAVVGPNSNQAVLGDYAWTMGDTKEAVSLLQGLQESAGDKIMIRHAEGCDWWSQDKSHIAEAVEVVRNSDIAVVAVGTRSTYLGRSPKYSTAGEGFDLSSLELPGVQEELLKEIKKTGKPMIVVLIAGKPLAMPWVKENADALLVQWYAGEQQGCTLADILLGKVNPSGKLNVSFPRSTGNTPCFYNHFVTDREEPFDQPGTPEEPKGHYIFDKPEPLWNFGHGKSYTTFDYVD”, for which the protein production result is “failed”.
Under “MDANEFHWLMDMLESVEVGLVVLDLDFHVQAWNGFMEHHSGITARQIRDKVLFEVFPDIPEAWLTRKVDAVAMLNTRAFTSWEQRPYLFKFRNTRPITGTEEYMFQNLTISPITAPNGEVEKVCLLVYDVTEFASSKRALERANEQLAKLSMTDRLTGLLNRGTWENLVDAEYERFRRYGQATSLVMFDIDHFKPVNDTYGHLAGDEVIRHTADVTRNNIRQSDSAGRYGGEEFGIILPETDAESARVICERIREAIEKSTVSTSAGDIQYTVSMGIAQLTETPENYMQWMQKADEALYKAKESGRNKVVVSLEHHHHHH” stands “failed”.
